Laboratory results from paper PMC7468127, “Structural basis of redox modulation on chloroplast ATP synthase” (Communications Biology, 2020).

T1: chloroplast ATP synthase (CF1FO) γ subunit (Spinacia oleracea, UniProt P05435 42-364, disulfide γCys240-γCys246 in the oxidized (IBZ) sample; free cysteines in the reduced (DTT) sample)
T1 construct: ATP synthase gamma chain, chloroplastic, Spinacia oleracea; endogenous subunit of the purified complex; One molecule for both redox states; also called central shaft γ subunit; source: purified from spinach leaves as part of the CF1FO complex (ammonium sulfate, sucrose gradient, anion exchange, SEC)
T1 sequence (looked up): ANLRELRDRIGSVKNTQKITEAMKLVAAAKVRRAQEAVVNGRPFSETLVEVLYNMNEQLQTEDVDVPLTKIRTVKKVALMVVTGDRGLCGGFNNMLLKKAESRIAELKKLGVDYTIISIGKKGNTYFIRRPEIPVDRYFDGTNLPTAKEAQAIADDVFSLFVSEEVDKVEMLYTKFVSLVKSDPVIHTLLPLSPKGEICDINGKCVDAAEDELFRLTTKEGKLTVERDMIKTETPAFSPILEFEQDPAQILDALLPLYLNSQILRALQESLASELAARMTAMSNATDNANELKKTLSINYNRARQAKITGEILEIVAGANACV

B1: chloroplast ATP synthase (CF1FO) subunit c (c14 ring) (natural protein, Spinacia oleracea, UniProt P69447 1-81, looked up)
chain: MNPLIAAASVIAAGLAVGLASIGPGVGQGTAAGQAVEGIARQPEAEGKIRGTLLLSLAFMEALTIYGLVVALALLFANPFV
notes: ATP synthase subunit c, chloroplastic, Spinacia oleracea; endogenous subunit of the purified complex; also called c ring; c-ring rotor; source: purified from spinach leaves as part of the CF1FO complex (ammonium sulfate, sucrose gradient, anion exchange, SEC); copies: 14
B2: chloroplast ATP synthase (CF1FO) ε subunit (natural protein, Spinacia oleracea, UniProt P00833 1-134, looked up)
chain: MTLNLCVLTPNRSIWNSEVKEIILSTNSGQIGVLPNHAPTATAVDIGILRIRLNDQWLTLALMGGFARIGNNEITILVNDAERGSDIDPQEAQQTLEIAEANLRKAEGKRQKIEANLALRRARTRVEASNTISS
notes: ATP synthase epsilon chain, chloroplastic, Spinacia oleracea; endogenous subunit of the purified complex; source: purified from spinach leaves as part of the CF1FO complex (ammonium sulfate, sucrose gradient, anion exchange, SEC)

What was measured:
[1] = molecular target: the molecule itself; test: cryo-EM structure
[2] = molecular target: T1, chloroplast ATP synthase (CF1FO) γ …; test: cryo-EM structure; conditions: both partners purified

Row | Binder | stoichiometry N [1] | binding result [2]
1 | B1 | 14 | 
2 | B2 |  | binds
